The results in this text go back to patent publication US20220267427A1 (SYSMEX, published 2022).

For one assay, the target named is T1, Peptide 23 (human).
T1 peptide: Biotin-QAQEYEALLNIKVKLEAE
The assay can be described thus: solid phase ELISA; biotinylated peptide on plate, antibody 2 ug/ml.

The target of a further assay is T2, Peptide 27 (human).
T2 peptide: Biotin-LLEDGEDFNLGDALD
Described as above.

In a further assay the target is T3, Peptide 21 (human).
T3 peptide: Biotin-SELAQTRAEGQRQAQEYE
The description is as above.

The next assay addresses T4, Peptide 20 (human).
T4 peptide: Biotin-ILLHLESELAQTRAEGQR
Described as above.

The target in assay [1] is T5, fCK18 in apoptosis-induced HepG2 cell culture supernatant (human, UniProt P05783 239-397).
T5 construct: Natural CK18 fragment from the culture supernatant of apoptosis-induced HepG2 cells (band around 18 KDa); also called fCK18 in apoptosis-inducing cells
T5 sequence: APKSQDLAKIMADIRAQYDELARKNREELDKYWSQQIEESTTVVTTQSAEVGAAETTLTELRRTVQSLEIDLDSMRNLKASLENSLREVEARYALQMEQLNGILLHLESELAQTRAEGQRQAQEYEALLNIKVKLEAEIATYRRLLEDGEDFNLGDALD
The experiment in a line: plate ELISA with K18-624 magnetic microbeads, K18-328Fab-ALP detector; fCK18 2.23 ng/mL. How it is done: (§1) Measurement samples of 3-fold dilution series (3-fold to 6561-fold dilution) were prepared from the apoptosis-induced HepG2 cell culture supernatant with a diluent (TBS, pH 7.5, 2% BSA), and fCK18 was measured. […] Based on the prepared calibration curve, fCK18 in the measurement sample was measured.
(§2) This solution was added to an ELISA plate at 25 μL/well, then each measurement sample was added at 25 μL/well, and the plate was incubated (1500 rpm, RT, 20 min). […] (3) After washing the plate, the HISCL (registered trademark) R4 reagent was added thereto at 50 μL/well, and then the mixture was stirred (1500 rpm, RT, 1 min). Thereafter, the HISCL (registered trademark) R5 reagent was added at 100 μL/well, and then the mixture was stirred (1000 rpm, RT, 10 sec). (4) Luminescence intensity was measured with a plate reader.
In general terms: In an ELISA, binding on a coated surface is turned into a signal by an enzyme label.

Assay [2] has as its target T5, fCK18 in apoptosis-induced HepG2 cell …. The assay can be described thus: plate ELISA with K18-624 magnetic microbeads, K18-328Fab-ALP detector. The method, then:
as §1, §2

Where no end group is shown, it is not given here. The star is where a group is joined. Biotin = O=C1N[C@H]2[C@H](CS[C@H]2CCCCC(=O)*)N1

B1: K18-328 antibody (antibody, V domains shown)
VH: QVHLQQSAAELARPGASVKMSCKASGYTFTNYTIHWIKQRPGQGLEWIGYINPSSGYTDYNQNFKDKTTLTADKSSTTVYMQLSSLTSEDSAVYYCARQIPFAYWGQGTLVTVSA
VL: not shown
notes: Mouse monoclonal antibody from a hybridoma (immunogen full length rCK18)
With B1, the Abs450 with Peptide 23 amounted to 0.02; with Peptide 27 it was 0; in the assay with Peptide 21, 0.01; with Peptide 20, 0.

B2: K18-624 antibody (antibody, V domains shown)
VH: DVQLVESGGGLVQPGGSRKLSCAASGFTFSSFGMHWVRQAPEKGLEWVAYISSGSTTIYYADTVKGRFTISRDNPKNTLFLQMTSLRSEDTAMYYCARRGMITTGAWFAYWGQGTLVTVSA
VL: DILLTQSPAILSVSPGERVSFSCRASQRIGTSIHWYQQRTNGSPRLLIKYASESISGIPSRFSGSGSGTDFTLSINSVESEDIADYYCQQSYIWPFTFGSGTKLEIK
notes: Mouse monoclonal antibody from a hybridoma (Balb/C mouse immunised with Peptide 1-KLH)
On to B2, for which, in assay [1], the S/N ratio was found to be 47.3. Further, in assay [2], the “fCK18 concentration detectable (S/N ratio of 2 or more)” value was not below 0.09 ng/mL and the “fold detection sensitivity compared with Comparative Example 1 (M30 antibody)” value is approximately 24 fold.
